10 molecules from patent US20260028422A1 (CONCEPT TO MEDICINE BIOTECH, published 2026) can be followed below.

For assay [1], the target named is T1, human MerTK expressed on cells (human, UniProt Q12866 21-999).
T1 construct: whole, on cells; also called CHO-K1-hMerTK; CHO-K1-MerTK
T1 sequence (looked up): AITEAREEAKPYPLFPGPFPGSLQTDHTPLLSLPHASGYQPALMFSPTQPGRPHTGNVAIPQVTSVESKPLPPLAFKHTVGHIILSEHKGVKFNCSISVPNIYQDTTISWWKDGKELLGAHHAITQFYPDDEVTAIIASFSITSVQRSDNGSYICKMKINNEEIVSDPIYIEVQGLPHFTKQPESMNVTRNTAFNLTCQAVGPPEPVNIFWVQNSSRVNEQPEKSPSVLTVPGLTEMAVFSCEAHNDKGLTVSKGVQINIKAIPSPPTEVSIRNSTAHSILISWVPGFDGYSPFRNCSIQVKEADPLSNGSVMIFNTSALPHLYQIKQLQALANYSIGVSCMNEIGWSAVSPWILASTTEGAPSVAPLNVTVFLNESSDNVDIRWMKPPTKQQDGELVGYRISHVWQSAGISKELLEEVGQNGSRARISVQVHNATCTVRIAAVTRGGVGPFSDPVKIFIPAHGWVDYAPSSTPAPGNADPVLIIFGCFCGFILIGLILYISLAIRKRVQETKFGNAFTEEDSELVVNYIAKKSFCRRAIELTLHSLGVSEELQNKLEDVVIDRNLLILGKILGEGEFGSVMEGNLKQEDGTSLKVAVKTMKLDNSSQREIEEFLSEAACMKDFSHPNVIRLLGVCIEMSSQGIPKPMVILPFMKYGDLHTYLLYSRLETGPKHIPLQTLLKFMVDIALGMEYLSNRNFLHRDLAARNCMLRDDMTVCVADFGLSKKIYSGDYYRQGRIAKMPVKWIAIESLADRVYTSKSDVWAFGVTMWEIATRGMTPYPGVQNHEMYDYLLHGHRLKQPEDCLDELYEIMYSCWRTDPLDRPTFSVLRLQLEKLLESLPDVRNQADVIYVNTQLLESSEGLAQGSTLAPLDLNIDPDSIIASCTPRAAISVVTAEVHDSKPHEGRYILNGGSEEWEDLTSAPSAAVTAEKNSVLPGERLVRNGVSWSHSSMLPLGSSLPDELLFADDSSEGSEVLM
In words: FACS on CHO-K1 cells overexpressing human MerTK, MFI (AF488).

The target in assay [2] is T2, human MerTK-his protein (human, UniProt Q12866 21-505).
T2 construct: extracellular domain; also called hMerTK-His; human MerTK protein
T2 sequence (looked up): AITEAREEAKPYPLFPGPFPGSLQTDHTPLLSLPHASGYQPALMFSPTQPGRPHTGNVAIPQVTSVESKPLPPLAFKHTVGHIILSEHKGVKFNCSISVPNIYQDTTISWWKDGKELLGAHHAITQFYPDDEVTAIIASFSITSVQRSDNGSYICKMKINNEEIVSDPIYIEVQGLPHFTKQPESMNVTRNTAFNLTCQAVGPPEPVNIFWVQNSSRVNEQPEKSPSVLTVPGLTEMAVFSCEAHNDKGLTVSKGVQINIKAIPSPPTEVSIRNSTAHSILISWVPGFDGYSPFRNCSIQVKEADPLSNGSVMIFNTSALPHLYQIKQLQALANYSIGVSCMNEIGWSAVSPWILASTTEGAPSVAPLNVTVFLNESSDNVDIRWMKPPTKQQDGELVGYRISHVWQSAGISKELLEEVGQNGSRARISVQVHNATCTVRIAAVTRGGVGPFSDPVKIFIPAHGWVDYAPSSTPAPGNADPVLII
In words: SPR Biacore 8K, antibody captured on Protein A chip, 50 nM antigen. As to the method: To explore whether the humanized antibodies could maintain their binding kinetics, affinity ranking were performed with Biacore™. The antibodies were captured with a Protein A chips. Human MerTK-his protein at 50 nM was injected over captured antibodies for 180 s at a flow rate of 30 μL/min. The antigen was allowed to dissociate for 600 s. The experiment was carried out on a Biacore™ 8K. Data analysis was carried out using Biacore™ 8K evaluation software.
In general terms: In SPR one partner is held on a chip, and binding of the other changes the refractive index at the surface.

The target of assay [3] is T2, human MerTK-his protein. In words: ELISA, plate coated with human MerTK-his, OD 450nm. As to the method:
To evaluate the binding activity, the chimeric mAbs were subjected to ELISA test. Briefly, 96-well plates were coated with human or cyno MerTK-his protein at 2 μg/mL in PBS, 100 μL/well at 4° C. overnight, then blocked with 150 μL/well of 1% BSA. Five-fold dilutions of MerTK antibodies starting from 20 nM were added to each well and incubated for 1 hour at room temperature. The plates were washed with PBS/Tween-20 and then incubated with goat anti-human IgG Fe antibody conjugated with Horse Radish Peroxidase (HRP) for 30 minutes (mins) at room temperature. After washing, the plates were developed with TMB substrate and subsequent stop solution was added to complete the reaction. The signal from each well was read by spectrophotometer at OD 450 nm.
To evaluate the antigen binding activity, the humanized antibodies were subjected to ELISA test as described before.
Background: An ELISA detects its analyte on a solid surface through an enzyme-linked reagent.

B1: 265F11B5Hu-6 (antibody, V domains shown)
VH: QVQLVQSGAEVKKPGASVKVSCKASGYTFTTYDINWVRQAPGQGLEWMGWIYPRDGYTKYNEKFKGRVTMTTDTSTSTAYMELRSLRSDDTAVYYCTRGYYDNLYYFDYWGQGTTVTVSS
VL: EIVLTQSPDFQSVTPKEKVTITCSASSIISSNYFHWYQQKPDQSPKLLIKRTSNLASGVPSRFSGSGSGTDYTLTINSLEAEDAATYYCQQGRSVPLTFGQGTKLEIK
B1: the 50% effective concentration (EC50) (commonly the concentration giving half of the maximal effect) in assay [1] turned out to be 0.17 nM. Besides, in the assay with human MerTK-his protein [2], binding was characterised by a dissociation constant (Kd) of 1.4 nM; the koff – broadly, a measure of how fast the partners let go of each other – came out at 0.000278 s⁻¹; the on-rate (kon) (in general, the second-order rate constant of association) was 199000 M⁻¹ s⁻¹. The same molecule gave an EC50 in the assay with human MerTK-his protein [3] of 0.044 nM.

B2: 265F11B5Hu-10 (antibody, V domains shown)
VH: QVQLVQSGAEVKKPGASVKVSCKASGYTFTTYDINWVRQAPGQGLEWMGWIYPRDGYTKYNEKFKGRVTMTTDTSTSTAYMELRSLRSDDTAVYYCTRGYYDNLYYFDYWGQGTTVTVSS
VL: EIVLTQSPDFQSVTPKEKVTITCSASSIISSNYFHWYQQKPDQSPKLLIYRTSNLASGVPSRFSGSGSGTDYTLTINSLEAEDAATYYCQQGRSVPLTFGQGTKLEIK
The molecule B2 yielded an EC50 in assay [1] of 0.19 nM. In the assay with human MerTK-his protein [2], the Kd (usually the free concentration of one partner at which half of the binding sites on the other are occupied at equilibrium, for simple one-to-one binding) turned out to be 2.52 nM; the dissociation rate constant (koff) is 0.000463 s⁻¹; the kon was 184000 M⁻¹ s⁻¹. In the assay with human MerTK-his protein [3], the midpoint of the response, the EC50, lay at 0.045 nM.

B3: 265F11B5Hu-2 (antibody, V domains shown)
VH: QVQLVQSGAEVKKPGASVKVSCKASGYTFTTYDINWVRQAPGQGLEWMGWIYPRDGYTKYNEKFKGRVTMTTDTSTSTAYMELRSLRSDDTAVYYCTRGYYDNLYYFDYWGQGTTVTVSS
VL: EIVLTQSPDFQSVTPKEKVTITCSASSIISSNYFHWYQQKPDQSPKLLIKRTSNLASGVPSRFSGSGSGTDFTLTINSLEAEDAATYYCQQGRSVPLTFGQGTKLEIK
Consider B3, for which, in assay [1], the EC50 amounted to 0.14 nM. Besides, in the assay with human MerTK-his protein [2], the Kd came out at 1.27 nM, the koff was 0.00025 s⁻¹ and the kon is 197000 M⁻¹ s⁻¹. In the assay with human MerTK-his protein [3], this molecule displayed a concentration giving a half-maximal response (EC50) of 0.054 nM.

B4: 265F11B5Hu-7 (antibody, V domains shown)
VH: QVQLVQSGAEVKKPGASVKVSCKASGYTFTTYDINWVRQAPGQGLEWIGWIYPRDGYTKYNEKFKGRATMTTDTSTSTAYMELRSLRSDDTAVYFCTRGYYDNLYYFDYWGQGTTVTVSS
VL: EIVLTQSPDFQSVTPKEKVTITCSASSIISSNYFHWYQQKPDQSPKLLIKRTSNLASGVPSRFSGSGSGTDYTLTINSLEAEDAATYYCQQGRSVPLTFGQGTKLEIK
On to B4, for which, in assay [1], the concentration for a half-maximal effect (EC50) is 0.14 nM. Further, in the assay with human MerTK-his protein [2], the dissociation constant Kd turned out to be 0.719 nM, the koff came to 0.000155 s⁻¹ and the on-rate (kon) was 216000 M⁻¹ s⁻¹. Also, the EC50 in the assay with human MerTK-his protein [3] amounted to 0.021 nM.

B5: 265F11B5Hu-8 (antibody, V domains shown)
VH: QVQLVQSGAEVKKPGASVKVSCKASGYTFTTYDINWVRQAPGQGLEWIGWIYPRDGYTKYNEKFKGRATLAVDTSTSTAYMELRSLRSDDTAVYFCTRGYYDNLYYFDYWGQGTTVTVSS
VL: EIVLTQSPDFQSVTPKEKVTITCSASSIISSNYFHWYQQKPDQSPKLLIKRTSNLASGVPSRFSGSGSGTDYTLTINSLEAEDAATYYCQQGRSVPLTFGQGTKLEIK
B5: in assay [1], the response was half-maximal at 0.14 nM (EC50). Also, in the assay with human MerTK-his protein [2], the Kd came out at 0.174 nM, the koff worked out at 3.95e-05 s⁻¹ and the kon is 227000 M⁻¹ s⁻¹. This molecule showed a 50% effective concentration (EC50) with human MerTK-his protein [3] of 0.037 nM.

B6: 265F11B5Hu-4 (antibody, V domains shown)
VH: QVQLVQSGAEVKKPGASVKVSCKASGYTFTTYDINWVRQAPGQGLEWIGWIYPRDGYTKYNEKFKGRATLAVDTSTSTAYMELRSLRSDDTAVYFCTRGYYDNLYYFDYWGQGTTVTVSS
VL: EIVLTQSPDFQSVTPKEKVTITCSASSIISSNYFHWYQQKPDQSPKLLIKRTSNLASGVPSRFSGSGSGTDFTLTINSLEAEDAATYYCQQGRSVPLTFGQGTKLEIK
Take B6: the EC50 in assay [1] came out at 0.13 nM. For the same molecule, in the assay with human MerTK-his protein [2], the Kd came out at 0.856 nM, the koff came out at 0.000172 s⁻¹ and the kon was 201000 M⁻¹ s⁻¹. In the assay with human MerTK-his protein [3], this molecule displayed a 50% effective concentration (EC50) of 0.068 nM.

B7: 265F11B5Hu-1 (antibody, V domains shown)
VH: QVQLVQSGAEVKKPGASVKVSCKASGYTFTTYDINWVRQAPGQGLEWMGWIYPRDGYTKYNEKFKGRVTMTTDTSTSTAYMELRSLRSDDTAVYYCARGYYDNLYYFDYWGQGTTVTVSS
VL: EIVLTQSPDFQSVTPKEKVTITCSASSIISSNYFHWYQQKPDQSPKLLIKRTSNLASGVPSRFSGSGSGTDFTLTINSLEAEDAATYYCQQGRSVPLTFGQGTKLEIK
Take B7: the EC50 in assay [1] stood at 0.16 nM. Also, in the assay with human MerTK-his protein [2], the equilibrium dissociation constant (Kd) is 1.15 nM, the koff was 0.000232 s⁻¹ and the kon amounted to 201000 M⁻¹ s⁻¹. Moreover, the concentration giving a half-maximal response (EC50) with human MerTK-his protein [3] turned out to be 0.042 nM.

B8: 265F11B5Hu-9 (antibody, V domains shown)
VH: QVQLVQSGAEVKKPGASVKVSCKASGYTFTTYDINWVRQAPGQGLEWMGWIYPRDGYTKYNEKFKGRVTMTTDTSTSTAYMELRSLRSDDTAVYYCARGYYDNLYYFDYWGQGTTVTVSS
VL: EIVLTQSPDFQSVTPKEKVTITCSASSIISSNYFHWYQQKPDQSPKLLIYRTSNLASGVPSRFSGSGSGTDYTLTINSLEAEDAATYYCQQGRSVPLTFGQGTKLEIK
In turn, B8 showed an EC50 in assay [1] of 0.19 nM. For the same molecule, in the assay with human MerTK-his protein [2], the Kd worked out at 2.17 nM, the koff was found to be 0.000443 s⁻¹ and the on-rate (kon) came to 204000 M⁻¹ s⁻¹. In the assay with human MerTK-his protein [3], this molecule returned a half-maximal effective concentration (EC50) of 0.059 nM.

B9: 265F11B5Hu-3 (antibody, V domains shown)
VH: QVQLVQSGAEVKKPGASVKVSCKASGYTFTTYDINWVRQAPGQGLEWIGWIYPRDGYTKYNEKFKGRATMTTDTSTSTAYMELRSLRSDDTAVYFCTRGYYDNLYYFDYWGQGTTVTVSS
VL: EIVLTQSPDFQSVTPKEKVTITCSASSIISSNYFHWYQQKPDQSPKLLIKRTSNLASGVPSRFSGSGSGTDFTLTINSLEAEDAATYYCQQGRSVPLTFGQGTKLEIK
The molecule B9 yielded an EC50 in assay [1] of 0.22 nM. In the assay with human MerTK-his protein [2], this molecule returned a Kd of 1.02 nM, an off-rate (koff) of 0.000204 s⁻¹ and an on-rate (kon) of 199000 M⁻¹ s⁻¹. For the same molecule, the EC50 in the assay with human MerTK-his protein [3] was found to be 0.06 nM.

B10: 265F11B5Hu-5 (antibody, V domains shown)
VH: QVQLVQSGAEVKKPGASVKVSCKASGYTFTTYDINWVRQAPGQGLEWMGWIYPRDGYTKYNEKFKGRVTMTTDTSTSTAYMELRSLRSDDTAVYYCARGYYDNLYYFDYWGQGTTVTVSS
VL: EIVLTQSPDFQSVTPKEKVTITCSASSIISSNYFHWYQQKPDQSPKLLIKRTSNLASGVPSRFSGSGSGTDYTLTINSLEAEDAATYYCQQGRSVPLTFGQGTKLEIK
In assay [1], B10 gave a 50% effective concentration (EC50) of 0.17 nM. Further, in the assay with human MerTK-his protein [2], the Kd came out at 1.16 nM, the koff came to 0.000232 s⁻¹ and the kon came out at 200000 M⁻¹ s⁻¹. In the assay with human MerTK-his protein [3], this molecule displayed an EC50 of 0.062 nM.
